From PMC3615136 (Molecular cell, 2013)

T1: wild-type FlaI, Sulfolobus acidocaldarius (Sulfolobus acidocaldarius), Q4J9L0
T1 chain: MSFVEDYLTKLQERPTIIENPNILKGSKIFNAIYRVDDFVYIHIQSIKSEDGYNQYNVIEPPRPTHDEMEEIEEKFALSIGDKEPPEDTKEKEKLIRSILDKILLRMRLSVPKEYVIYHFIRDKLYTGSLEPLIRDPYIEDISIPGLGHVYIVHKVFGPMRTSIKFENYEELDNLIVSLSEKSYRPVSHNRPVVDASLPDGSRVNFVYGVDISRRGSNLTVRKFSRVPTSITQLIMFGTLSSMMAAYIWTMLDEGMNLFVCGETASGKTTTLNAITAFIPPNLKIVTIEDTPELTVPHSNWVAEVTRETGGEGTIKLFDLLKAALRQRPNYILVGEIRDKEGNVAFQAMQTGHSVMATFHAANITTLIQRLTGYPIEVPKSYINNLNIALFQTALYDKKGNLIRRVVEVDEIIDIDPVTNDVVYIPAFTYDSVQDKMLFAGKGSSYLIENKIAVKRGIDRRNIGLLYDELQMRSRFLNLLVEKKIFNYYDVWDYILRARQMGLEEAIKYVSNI


How the values were obtained:
[1] = biological target: T1, wild-type FlaI, Sulfolobus …; experiment: crystal structure; details: remark: other sources report otherwise
[2] = biological target: the molecule itself; experiment: crystal structure
[3] = biological target: the molecule itself; experiment: SEC

Binder | binding result [3] | further results
wild-type FlaI, Sulfolobus acidocaldarius, Q4J9L0 1-513 (enzyme) MSFVEDYLTKLQERPTIIENPNILKGSKIFNAIYRVDDFVYIHIQSIKSEDGYNQYNVIEPPRPTHDEMEEIEEKFALSIGDKEPPEDTKEKEKLIRSILDKILLRMRLSVPKEYVIYHFIRDKLYTGSLEPLIRDPYIEDISIPGLGHVYIVHKVFGPMRTSIKFENYEELDNLIVSLSEKSYRPVSHNRPVVDASLPDGSRVNFVYGVDISRRGSNLTVRKFSRVPTSITQLIMFGTLSSMMAAYIWTMLDEGMNLFVCGETASGKTTTLNAITAFIPPNLKIVTIEDTPELTVPHSNWVAEVTRETGGEGTIKLFDLLKAALRQRPNYILVGEIRDKEGNVAFQAMQTGHSVMATFHAANITTLIQRLTGYPIEVPKSYINNLNIALFQTALYDKKGNLIRRVVEVDEIIDIDPVTNDVVYIPAFTYDSVQDKMLFAGKGSSYLIENKIAVKRGIDRRNIGLLYDELQMRSRFLNLLVEKKIFNYYDVWDYILRARQMGLEEAIKYVSNI |  | stoichiometry N [1]: 6
FlaI Walker B mutant (FlaI^E336A), full-length, Sulfolobus acidocaldarius (enzyme, UniProt Q4J9L0 1-513, looked up) MSFVEDYLTKLQERPTIIENPNILKGSKIFNAIYRVDDFVYIHIQSIKSEDGYNQYNVIEPPRPTHDEMEEIEEKFALSIGDKEPPEDTKEKEKLIRSILDKILLRMRLSVPKEYVIYHFIRDKLYTGSLEPLIRDPYIEDISIPGLGHVYIVHKVFGPMRTSIKFENYEELDNLIVSLSEKSYRPVSHNRPVVDASLPDGSRVNFVYGVDISRRGSNLTVRKFSRVPTSITQLIMFGTLSSMMAAYIWTMLDEGMNLFVCGETASGKTTTLNAITAFIPPNLKIVTIEDTPELTVPHSNWVAEVTRETGGEGTIKLFDLLKAALRQRPNYILVGAIRDKEGNVAFQAMQTGHSVMATFHAANITTLIQRLTGYPIEVPKSYINNLNIALFQTALYDKKGNLIRRVVEVDEIIDIDPVTNDVVYIPAFTYDSVQDKMLFAGKGSSYLIENKIAVKRGIDRRNIGLLYDELQMRSRFLNLLVEKKIFNYYDVWDYILRARQMGLEEAIKYVSNI |  | stoichiometry N [2]: 6
FlaI^R307K/E336A interface mutant in the Walker B background (enzyme, Sulfolobus acidocaldarius, UniProt Q4J9L0 1-513, looked up) MSFVEDYLTKLQERPTIIENPNILKGSKIFNAIYRVDDFVYIHIQSIKSEDGYNQYNVIEPPRPTHDEMEEIEEKFALSIGDKEPPEDTKEKEKLIRSILDKILLRMRLSVPKEYVIYHFIRDKLYTGSLEPLIRDPYIEDISIPGLGHVYIVHKVFGPMRTSIKFENYEELDNLIVSLSEKSYRPVSHNRPVVDASLPDGSRVNFVYGVDISRRGSNLTVRKFSRVPTSITQLIMFGTLSSMMAAYIWTMLDEGMNLFVCGETASGKTTTLNAITAFIPPNLKIVTIEDTPELTVPHSNWVAEVTKETGGEGTIKLFDLLKAALRQRPNYILVGAIRDKEGNVAFQAMQTGHSVMATFHAANITTLIQRLTGYPIEVPKSYINNLNIALFQTALYDKKGNLIRRVVEVDEIIDIDPVTNDVVYIPAFTYDSVQDKMLFAGKGSSYLIENKIAVKRGIDRRNIGLLYDELQMRSRFLNLLVEKKIFNYYDVWDYILRARQMGLEEAIKYVSNI | binds | 
FlaI^N190E/E336A interface mutant in the Walker B background (enzyme, Sulfolobus acidocaldarius, UniProt Q4J9L0 1-513, looked up) MSFVEDYLTKLQERPTIIENPNILKGSKIFNAIYRVDDFVYIHIQSIKSEDGYNQYNVIEPPRPTHDEMEEIEEKFALSIGDKEPPEDTKEKEKLIRSILDKILLRMRLSVPKEYVIYHFIRDKLYTGSLEPLIRDPYIEDISIPGLGHVYIVHKVFGPMRTSIKFENYEELDNLIVSLSEKSYRPVSHERPVVDASLPDGSRVNFVYGVDISRRGSNLTVRKFSRVPTSITQLIMFGTLSSMMAAYIWTMLDEGMNLFVCGETASGKTTTLNAITAFIPPNLKIVTIEDTPELTVPHSNWVAEVTRETGGEGTIKLFDLLKAALRQRPNYILVGAIRDKEGNVAFQAMQTGHSVMATFHAANITTLIQRLTGYPIEVPKSYINNLNIALFQTALYDKKGNLIRRVVEVDEIIDIDPVTNDVVYIPAFTYDSVQDKMLFAGKGSSYLIENKIAVKRGIDRRNIGLLYDELQMRSRFLNLLVEKKIFNYYDVWDYILRARQMGLEEAIKYVSNI | binds | 
